# From the supplement of paper PMC12764529
# ± gives the half width of the 95% confidence interval.
# Tests used:
# [1] = folding stability dG unfold (combined trypsin and chymotrypsin); higher = more stable
# How it was run: (§1)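 Digests were run with trypsin and chymotrypsin at 11 concentrations in threefold dilutions, plus a no-protease condition, on designed mini-proteins in a PA-tagged cDNA display construct. The mini-proteins were under 80 residues, had no cysteine, and were kept only when AlphaFold2 dimer inter-PAE was above 15. After sequencing, Bayesian fitting of the counts gave K50, from which unfolding free energy was derived against a sequence-predicted unfolded-state K50 and a shared folded-state K50, per protease or combined.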
# [2] = folding stability dG unfold from chymotrypsin proteolysis; higher = more stable
# How it was run: as §1
# [3] = folding stability dG unfold from trypsin proteolysis; higher = more stable
# How it was run: as §1
Sequence,folding stability dG unfold [1] [kcal/mol],folding stability dG unfold [2] [kcal/mol],folding stability dG unfold [3] [kcal/mol]
SAGGMLKIEVTVPAEYPEQAEEIAAEIRDLLEAGPYVKVLKVEIEPTEDTVRVTVVVEIEFDSPEELISAGG [r13_39_TrMRF],1.78 ± 0.21,2.1 ± 0.06,1.36 ± 0.17
SAGGSAGGMTLVLEGMSEEELEELARKLRELAEELGLKVKITVERREDGRVRLTVEIELPEELPSAGGSAGG [r6_906_TrROS_Hall],4.15 ± 0.25,3.69 ± 0.23,4.36 ± 0.26
SAGGSAGGSAGGGVKYRVLLPKDVNPEKAAELLKPYGVKVVSIEEVEEGFYLIEVEKPESAGGSAGGSAGGS [r10_591_TrMRF],1.49 ± 0.13,1.59 ± 0.13,1.18 ± 0.032
SMKKILIIVPKEMSEEEVEALVKELLEKLGLPEGAEVEILTEEELEKNPELKKKLEEAEKKGADLVIIIPSA [r9_1147_TrROS_Hall],3.12 ± 0.32,3 ± 0.2,3.39 ± 0.32
SMVTVEEYEEDDEYYVKVYDPEKGVGVVFKTKDGVFKMPVTDPEALKEAIKASGIDVEIVEVRPLGPGLVSA [r9_1102_JUSTAS],0.492 ± 0.083,0.581 ± 0.1,0.357 ± 0.036
SSLGPGELEVTELETTEEELPDGTTLKRTLSREIVPDPAGAGRVVLTETLSTVPPDGSETVTTLSVTVLASA [r9_838_JUSTAS],-0.138 ± 0.16,-0.0934 ± 0.17,-0.078 ± 0.13
SAGGSAGGSAGMKIEIELDENGELRIRITVYNKETKEEVEEFEFTLPLEELEEELRKLLESAGGSAGGSAGG [r11_376_TrROS_Hall],3.5 ± 0.22,3.62 ± 0.15,3.16 ± 0.12
SAGGSAMTTVTWTFPPSTSVEEAIEALKAQLEAERNEKIEIPSISVSTTGDTITVTLPIKIEPLPASAGGSA [r15_105_JUSTAS],1.26 ± 0.14,0.327 ± 0.22,1.86 ± 0.049
SAGGSAGGPLKVELVKAEILPGNKIIRVYRAELPTETYLAVIELHLNPDGEILSAKIKVYPLPESAGGSAGG [r6_19_TrMRF],3.06 ± 0.14,3.06 ± 0.052,2.85 ± 0.14
SAGGSAGGSASKDDKIVKVKVFTIKLKPNLEGLPKKVRELLEKLGIKEIKITFVSVFNPEDFSAGGSAGGSA [r18_127_TrMRF],3.93 ± 0.17,4.34 ± 0.14,3.23 ± 0.2
KIKIEPGETVRIKVKVKLPDGEEKEIEIELSLEELEKKLGRPLTPEEILNLIKEEAEKKGFEVEEVEIEKES [r1_338_TrROS_Hall],0.961 ± 0.36,1.38 ± 0.12,0.391 ± 0.12
SAGTIAKEIAEKLGLPGLKVKDVKFEPDPDGPIKEIEITVEFPNGRYWKIDIRYDPGNIVIDIEPVPPSAGG [r19_392_TrROS],2.17 ± 0.1,2.29 ± 0.029,1.98 ± 0.056
SAGGSASMTTKRPVSPELRAKVEAAAAAGDPAITVTLPVTLPDGRTVTLTVTKDPTADTFTATVVSSAGGSA [r15_700_JUSTAS],0.221 ± 0.22,0.367 ± 0.3,0.0823 ± 0.33
SAGGSAGGMKIEIFQNDDGIYVRIKLKPPNGPPRTMVFPFTANQIKDALKQFPNYKIEDIEVYRSAGGSAGG [r6_879_TrROS],1.9 ± 0.15,2.18 ± 0.09,1.47 ± 0.12
SAGSPLTLSEKTSYDPSTGVTTRTFTFPDGTTRTTATVTVPGTGTLLTSTDFTQSPGTLTQSSGVAPLSAGG [r19_394_JUSTAS],0.616 ± 0.025,0.706 ± 0.031,0.392 ± 0.019
SAGGSAMKVYKIKLEFENEETGKRVEIEAEVVEVDGELYLVMKAKVVDEETGEEKEIEIVIKLPKESAGGSA [r15_960_TrROS_Hall],2.31 ± 0.21,2.27 ± 0.4,2.48 ± 0.21
SAGMLVRVTLKYPDGKTIKIPFPYAKILSEETSNNETTFTIDSPESADKAVEAIKKEYPDIEVKVEPLESAG [r5_453_JUSTAS],2.23 ± 0.058,2.46 ± 0.035,1.67 ± 0.022
SAGGVREIAKRIANFAREHGYEVEVDEIEPPPNGYVVIDAKIQMRDGGKPVHEFPISIRFPPPPGDPSAGGS [r8_102_TrROS],3.86 ± 0.68,3.51 ± 0.16,3.98 ± 0.43
SDEGYKVEINPMIHRTDGKVTIMFMIQIKPGLDDLKIKIKLRLPDGKPMKVDYQRNPDNGFIMVSATMPPSA [r9_159_TrROS],3.53 ± 0.14,4.21 ± 0.066,2.91 ± 0.1
SAGGSAGGKKPVYEIEITTKDGSKLTIAVKEGEEVEIKITVNGKEISLEDITSIEIRPVELPEESAGGSAGG [r6_222_TrROS_Hall],1.94 ± 0.098,1.84 ± 0.089,1.99 ± 0.16
SAGGSAGGSAGGMVELDPENGTLTVLVEVDGELYKVTIKFNPETNEIVSIEVEKLPELEESAGGSAGGSAGG [r7_343_TrROS_Hall],3.66 ± 0.42,3.85 ± 0.31,3.03 ± 0.41
